In patent publication US20110179509A1, “Use of Afamin for Treating Fertility Disorders” (VITATEQ BIOTECHNOLOGY GMBH, priority 2008, published 2011):
Entries after “also recorded” stand apart in the source; their conditions may differ.

B1: recombinantly produced murine afamin: murine afamin expressed by stable transfection of CHO cells with mouse afamin cDNA, purified from serum-free culture supernatants (protein, UniProt O89020 22-608, looked up)
Afamin: LPTKPQDVDHFNATQKFIDENTTYLAIIAFSQYVQEASFDEVETLVKVMLDYRDRCWADNTLPECSKTANDAIQDMLCDMEGLPQKHNFSHCCGKAGFPRRLCFFYNKKANVGFLPPFPTLDPEEKCQAYKNNSESFLHLYMYEVARRNPFVFAPVLLAVAAWFEEAATTCCEQQQKATCFQAKAAPITQYLKASSSYQRNVCGALIKFGPKVLNSINVAVFSKKFPKIGFKDLTTLLEDVSSMYEGCCEGDVVHCIRSQSQVVNHICSKQDSISSKIKVCCEKKTLEREACIINANKDDRPEGLSLREAKFTESENVCQERDSDPDKFFAEFIYEYSRRHPDLSTPELLRITKVYMDFLEDCCSRENPAGCYRHVEDKFNETTQRSLAMVQQECKQFQELGKDTLQRHFLVKFTKAAPQLPMEELVSLSKEMVAALTTCCTLSDEFACVDNLADLVLGELCGVNTNRTINPAVDHCCKTDFAFRRHCFEHLKADTTYELPSVSALVSALHTDWCQPRKEDLQNKKHRFLVNLVKWMPGITDEEWLCLFTKFTAAREECSEVQEPESCFSPESSKTGDESQATEKQR
B2: afamin: 75-kDa human serum glycoprotein with vitamin E-binding properties, member of the albumin gene family (protein, UniProt P43652 22-599, looked up)
Afamin: LPTQPRDIENFNSTQKFIEDNIEYITIIAFAQYVQEATFEEMEKLVKDMVEYKDRCMADKTLPECSKLPNNVLQEKICAMEGLPQKHNFSHCCSKVDAQRRLCFFYNKKSDVGFLPPFPTLDPEEKCQAYESNRESLLNHFLYEVARRNPFVFAPTLLTVAVHFEEVAKSCCEEQNKVNCLQTRAIPVTQYLKAFSSYQKHVCGALLKFGTKVVHFIYIAILSQKFPKIEFKELISLVEDVSSNYDGCCEGDVVQCIRDTSKVMNHICSKQDSISSKIKECCEKKIPERGQCIINSNKDDRPKDLSLREGKFTDSENVCQERDADPDTFFAKFTFEYSRRHPDLSIPELLRIVQIYKDLLRNCCNTENPPGCYRYAEDKFNETTEKSLKMVQQECKHFQNLGKDGLKYHYLIRLTKIAPQLSTEELVSLGEKMVTAFTTCCTLSEEFACVDNLADLVFGELCGVNENRTINPAVDHCCKTNFAFRRPCFESLKADKTYVPPPFSQDLFTFHADMCQSQNEELQRKTDRFLVNLVKLKHELTDEELQSLFTNFANVVDKCCKAESPEVCFNEESPKIGN

Legend:
[1] = system: infertile male chimeric animals; assay: afamin substitution via intraperitoneal minipump in infertile male chimeric afamin knock-out mice: fertility and testes histology; type: in vivo, mouse
Description: Chimeric mice from ES cells carrying the disrupted afamin allele were generated by microinjection of 10-15 ES cells into 3.5-day-old embryos of the C57B1/J mouse strain. Chimeric animals were mated to C57B1/J or 129/Sv partners, respectively, to establish the afamin mutant allele on a C57B1/J×129/Sv hybrid and on a 129/Sv inbred genetic background. Loss of afamin mRNA and protein was checked by Northern and Western blot analysis.
In order to confirm the role of afamin for fertility, infertile male chimeric animals were substituted with recombinantly produced murine afamin via minipump, which was implanted intraperitonially and released afamin continuously into the organism for 28 days (which corresponds to the time required for spermiogenesis in mice). Control mice received physiological saline solution instead of afamin. At weekly time intervals, plasma was obtained from substituted mice. […] Offspring were, however, exclusively wild-type not carrying the recombinant allele.

[2] = afamin plasma concentration by ELISA during afamin substitution; type: in vivo, mouse; conditions: infertile male chimeric mice, intraperitoneal minipump, continuous release for 28 days, plasma at weekly intervals
Description: In order to analyse the afamin concentrations in the partial knock-out mice, an ELISA kit for quantifying afamin in mouse plasma was developed. For that purpose, a polyclonal antibody against mouse afamin was obtained by immunising rabbits with purified recombinant murine afamin. Recombinant expression of murine afamin was achieved by stable transfection of CHO cells with mouse afamin cDNA followed by purification from serum-free culture supernatants. The obtained polyclonal anti-mouse afamin antibody was purified by affinity chromatography on a sepharose column to which recombinant afamin was covalently bound. This affinity-purified antibody was used to coat ELISA-plates and, after conjugation with horse-radish peroxidase, also for detection using an appropriate substrate reaction. Purified recombinant afamin (quantified by amino acid compositional analysis) served as standard. With this ELISA, an afamin plasma concentration in the range of 6-10 mg/l was measured in wild-type mice which is roughly only 10% of respective plasma levels in humans (3).
In order to confirm the role of afamin for fertility, infertile male chimeric animals were substituted with recombinantly produced murine afamin via minipump, which was implanted intraperitonially and released afamin continuously into the organism for 28 days (which corresponds to the time required for spermiogenesis in mice). […]

[3] = human afamin binding alpha- and gamma-tocopherol, radioligand assay; read-out: binding-dissociation constant; cited from earlier work

| Molecule | histological examination of testes, spermiogenesis ([1]; after afamin substitution and sacrifice) | fertility (mating with female wild-type mice) ([1]; intraperitoneal minipump, 28 days substitution) | plasma concentrations of afamin [2] | Kd [3] [µM] |
| --- | --- | --- | --- | --- |
| B1 | restoration of normal testes histology, spermiogenesis; also recorded: completely normalised testes tissue and spermiogenesis | restoration of normal testes histology, spermiogenesis and fertility; also recorded: resulted in several pregnancies and births | immediately rose to physiological levels and stayed constant during the infusion period |  |
| B2 |  |  |  | 18 |
